{"source": "patent US20150099790A1", "assay_in_all_cases": "TAP purification of tagged bait from yeast, trypsin digestion, mass spectrometric identification of co-purified proteins", "key": {"[1]": {"molecular_target": "Mpm1 (Saccharomyces cerevisiae) (UniProt P40364)", "sequence (P40364 whole entry)": "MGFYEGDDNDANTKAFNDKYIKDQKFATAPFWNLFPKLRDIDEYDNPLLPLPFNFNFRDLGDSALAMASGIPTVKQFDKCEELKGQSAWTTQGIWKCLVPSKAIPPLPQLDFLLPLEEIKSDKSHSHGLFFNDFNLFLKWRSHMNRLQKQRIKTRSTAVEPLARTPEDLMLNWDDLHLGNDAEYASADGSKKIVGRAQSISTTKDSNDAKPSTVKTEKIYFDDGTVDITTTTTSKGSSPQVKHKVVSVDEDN"}, "[2]": {"molecular_target": "Mpc3 (S. cerevisiae, encoded by YGR243W) (S. cerevisiae) (UniProt P53311)"}, "[3]": {"molecular_target": "Fmp24 (Saccharomyces cerevisiae) (UniProt Q04472)", "sequence (Q04472 whole entry)": "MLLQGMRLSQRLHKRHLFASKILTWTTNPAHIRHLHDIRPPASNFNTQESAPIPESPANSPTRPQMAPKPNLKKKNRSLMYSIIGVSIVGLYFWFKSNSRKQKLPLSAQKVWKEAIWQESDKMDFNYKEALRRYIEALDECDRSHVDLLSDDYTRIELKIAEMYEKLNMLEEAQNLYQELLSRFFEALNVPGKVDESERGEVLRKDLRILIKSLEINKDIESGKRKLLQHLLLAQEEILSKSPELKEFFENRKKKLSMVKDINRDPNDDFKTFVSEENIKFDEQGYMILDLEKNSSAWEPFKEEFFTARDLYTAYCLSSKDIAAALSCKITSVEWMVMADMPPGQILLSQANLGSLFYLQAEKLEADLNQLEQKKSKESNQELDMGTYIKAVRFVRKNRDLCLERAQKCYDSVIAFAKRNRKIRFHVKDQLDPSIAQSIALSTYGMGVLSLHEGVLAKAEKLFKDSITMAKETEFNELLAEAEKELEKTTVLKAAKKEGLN"}, "[4]": {"molecular_target": "Gut2 (Saccharomyces cerevisiae) (UniProt P32191)", "sequence (P32191 whole entry)": "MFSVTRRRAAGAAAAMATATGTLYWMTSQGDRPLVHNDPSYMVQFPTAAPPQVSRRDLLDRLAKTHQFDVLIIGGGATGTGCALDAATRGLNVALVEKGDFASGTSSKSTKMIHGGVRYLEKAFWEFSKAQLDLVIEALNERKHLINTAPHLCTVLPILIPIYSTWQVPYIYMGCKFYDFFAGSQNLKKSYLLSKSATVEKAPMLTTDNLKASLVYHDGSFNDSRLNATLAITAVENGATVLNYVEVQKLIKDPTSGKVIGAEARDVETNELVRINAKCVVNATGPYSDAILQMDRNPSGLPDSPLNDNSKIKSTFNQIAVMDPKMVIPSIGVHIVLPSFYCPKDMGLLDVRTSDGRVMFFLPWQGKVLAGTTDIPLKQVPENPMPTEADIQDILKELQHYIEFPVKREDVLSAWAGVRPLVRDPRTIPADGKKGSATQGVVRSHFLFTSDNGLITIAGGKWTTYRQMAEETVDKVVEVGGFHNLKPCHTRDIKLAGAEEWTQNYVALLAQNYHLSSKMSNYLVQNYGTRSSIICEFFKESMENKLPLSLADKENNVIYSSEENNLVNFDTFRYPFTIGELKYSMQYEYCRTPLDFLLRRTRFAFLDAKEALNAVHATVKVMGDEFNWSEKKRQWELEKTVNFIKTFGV"}, "[5]": {"molecular_target": "Cor1 (Saccharomyces cerevisiae) (UniProt P07256)", "sequence (P07256 27-457 limits assumed)": "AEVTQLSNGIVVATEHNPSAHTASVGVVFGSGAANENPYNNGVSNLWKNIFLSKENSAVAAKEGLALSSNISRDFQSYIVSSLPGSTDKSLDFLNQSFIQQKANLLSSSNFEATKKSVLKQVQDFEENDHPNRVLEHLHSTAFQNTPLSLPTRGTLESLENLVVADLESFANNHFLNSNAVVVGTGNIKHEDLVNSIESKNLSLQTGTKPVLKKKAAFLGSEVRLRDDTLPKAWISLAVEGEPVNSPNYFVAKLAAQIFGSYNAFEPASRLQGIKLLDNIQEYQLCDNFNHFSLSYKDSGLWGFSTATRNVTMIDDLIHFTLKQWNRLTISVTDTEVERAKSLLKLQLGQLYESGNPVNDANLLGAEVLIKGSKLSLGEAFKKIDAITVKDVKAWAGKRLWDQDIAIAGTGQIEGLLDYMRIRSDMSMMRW"}, "[6]": {"molecular_target": "Md12 (Saccharomyces cerevisiae) (UniProt P33311)", "sequence (P33311 91-773 limits assumed)": "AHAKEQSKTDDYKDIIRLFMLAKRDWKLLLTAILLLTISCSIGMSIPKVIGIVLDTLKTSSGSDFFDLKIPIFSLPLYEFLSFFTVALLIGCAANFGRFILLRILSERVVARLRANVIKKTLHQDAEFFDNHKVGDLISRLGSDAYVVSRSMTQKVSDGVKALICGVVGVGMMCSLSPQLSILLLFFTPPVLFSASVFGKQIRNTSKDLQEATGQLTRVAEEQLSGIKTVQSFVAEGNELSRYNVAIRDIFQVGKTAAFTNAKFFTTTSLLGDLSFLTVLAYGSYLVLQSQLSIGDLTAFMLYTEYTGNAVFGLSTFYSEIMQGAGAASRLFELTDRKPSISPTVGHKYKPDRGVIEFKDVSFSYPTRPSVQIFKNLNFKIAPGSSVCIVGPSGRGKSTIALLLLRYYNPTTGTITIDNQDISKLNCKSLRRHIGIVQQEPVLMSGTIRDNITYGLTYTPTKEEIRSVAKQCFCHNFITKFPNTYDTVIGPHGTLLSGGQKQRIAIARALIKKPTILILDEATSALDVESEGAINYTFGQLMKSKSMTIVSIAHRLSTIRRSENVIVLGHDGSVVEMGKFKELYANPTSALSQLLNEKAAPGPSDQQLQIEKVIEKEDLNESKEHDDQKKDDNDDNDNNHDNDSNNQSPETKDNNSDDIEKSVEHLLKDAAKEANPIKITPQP"}, "[7]": {"molecular_target": "Nde1 (Saccharomyces cerevisiae) (UniProt P40215)", "sequence (P40215 42-560 limits assumed)": "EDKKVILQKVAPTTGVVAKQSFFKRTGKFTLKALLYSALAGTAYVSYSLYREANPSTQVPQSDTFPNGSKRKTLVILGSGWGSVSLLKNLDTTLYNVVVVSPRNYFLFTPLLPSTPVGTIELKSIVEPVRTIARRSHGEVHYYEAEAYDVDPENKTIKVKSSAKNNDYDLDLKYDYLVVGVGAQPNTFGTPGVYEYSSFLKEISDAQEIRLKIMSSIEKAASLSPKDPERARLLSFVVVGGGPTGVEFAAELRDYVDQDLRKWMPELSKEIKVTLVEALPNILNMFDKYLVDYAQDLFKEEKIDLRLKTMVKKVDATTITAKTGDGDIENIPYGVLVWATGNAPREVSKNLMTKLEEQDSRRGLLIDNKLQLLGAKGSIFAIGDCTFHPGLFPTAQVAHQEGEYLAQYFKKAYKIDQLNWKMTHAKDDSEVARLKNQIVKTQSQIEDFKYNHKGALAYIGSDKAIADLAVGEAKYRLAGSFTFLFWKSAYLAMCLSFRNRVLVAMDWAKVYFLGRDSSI"}, "[8]": {"molecular_target": "Qcr2 (Saccharomyces cerevisiae) (UniProt P07257)", "sequence (P07257 17-368 limits assumed)": "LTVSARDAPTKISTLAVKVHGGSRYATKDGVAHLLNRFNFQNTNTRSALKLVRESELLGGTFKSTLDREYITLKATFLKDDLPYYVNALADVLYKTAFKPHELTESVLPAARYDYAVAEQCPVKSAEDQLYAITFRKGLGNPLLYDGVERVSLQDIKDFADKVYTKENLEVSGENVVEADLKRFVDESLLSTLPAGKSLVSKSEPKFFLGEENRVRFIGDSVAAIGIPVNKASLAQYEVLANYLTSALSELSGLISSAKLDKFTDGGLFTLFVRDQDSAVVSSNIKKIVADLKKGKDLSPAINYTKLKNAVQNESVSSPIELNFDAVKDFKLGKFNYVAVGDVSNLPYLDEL"}}}
{"substance": "Mpc1-His6/HA2 (from UniProt P53157 1-130)", "values": [{"measurement": "PSMs", "setting": "[1]", "value": 7, "unit": "PSMs"}, {"measurement": "PSMs", "setting": "[2]", "value": 5, "unit": "PSMs"}, {"measurement": "PSMs", "setting": "[3]", "value": 4, "unit": "PSMs"}, {"measurement": "PSMs", "setting": "[4]", "value": 7, "unit": "PSMs"}]}
{"substance": "Mpc2, tagged variant used for TAP purification (from UniProt P38857 1-129)", "values": [{"measurement": "PSMs", "setting": "[2]", "value": 5, "unit": "PSMs"}, {"measurement": "PSMs", "setting": "[5]", "value": 5, "unit": "PSMs"}, {"measurement": "PSMs", "setting": "[6]", "value": 28, "unit": "PSMs"}, {"measurement": "PSMs", "setting": "[7]", "value": 6, "unit": "PSMs"}, {"measurement": "PSMs", "setting": "[4]", "value": 4, "unit": "PSMs"}, {"measurement": "PSMs", "setting": "[8]", "value": 3, "unit": "PSMs"}]}
